IntAct's records for PubMed 16390871

B1: Hsp90 co-chaperone Cdc37 (Schizosaccharomyces pombe (strain ATCC 38366 / 972)), O94740 (parent)
chain: MAIDYSKWDKLELSDDSDIEVHPNVDKKSFIRWRQRDIHEKRAVRKQKMEDIKGAMAMNRRLLSRISEMETVLEKESPSDPYVLLGSFLEAKKSEDMDSAIPGGMSYHHMLMSLLKVIKDAEDTTEEKSMDDSDKCLRRLKSHKERLLKLLEDAQKEYDTLEAESKNYITSEDLHLGFDSTYVQKKEPEKPKKTKTKKETIQVIESLNNPTPPTDFPGAKEQASTGNAPKNPVNENESEDEEGLSLSEDGKKFANIDFGDYSSSEEFLKEHLNILADEEESDAILLEAFNAELEGKPSLAKQYVHQALLISYCRQLGPNGLSIFFQKIKDPNHQSQRLFLEDVHNTYVRIHERSAAISKEQAESGEGVEQIQLCAVDPNTKLSITIPEAGSTDPETQKARAAFESFPPNLQKALMTNDLDKINVVLGKMAVENAEEVVEKLSSTGMLSIEEGIIDTTKGETIPQLS

Variants of: B1
Details: with cdk1_schpo cdc2, P04551
Chain of cdk1_schpo cdc2, P04551 (P04551 whole entry): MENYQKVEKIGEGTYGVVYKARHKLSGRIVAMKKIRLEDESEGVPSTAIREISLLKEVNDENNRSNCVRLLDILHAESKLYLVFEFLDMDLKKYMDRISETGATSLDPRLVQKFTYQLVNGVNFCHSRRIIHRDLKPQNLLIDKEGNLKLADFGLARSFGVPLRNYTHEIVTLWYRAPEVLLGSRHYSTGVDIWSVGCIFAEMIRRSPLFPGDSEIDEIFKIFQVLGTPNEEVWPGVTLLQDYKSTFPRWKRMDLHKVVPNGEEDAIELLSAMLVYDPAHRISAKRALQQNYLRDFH

Row | Variant | effect of a mutation on the interaction
1 | MAIDYSKWDKLELSDDSDIEVHPNVDKKSFIRWRQRDIHEKRAVRKQKMEDIKGAMAMNRRLLSRISEMETVLEKESPSDPYVLLGSFLEAKKSEDMDSAIPGGMSYHHMLMSLLKVIKDAEDTTEEKSMDDSDKCLRRLKSHKERLLKLLEDAQKEYDTLEAESKNYITSEDLHLGFDSTYVQKKEPEKPKKTKTKKETIQVIESLNNPTPPTDFPGAKEQASTGNAPKNPVNENESEDEEGLSLSEDGKKFANIDFGDYSSSEEFLKEHLNILADEEESDAIPLEAFNAELEGKPSLAKQYVHQALLISYCRQLGPNGLSIFFQKIKDPNHQSQRLFLEDVHNTYVRIHERSAAISKEQAESGEGVEQIQLCAVDPNTKLSITIPEAGSTDPETQKARAAFESFPPNLQKALMTNDLDKINVVLGKMAVENAEEVVEKLSSTGMLSIEEGIIDTTKGETIPQLS [L285P] | decreasing interaction
2 | MAIDYSKWDKLELSDDSDIEVHPNVDKKSFIRWRQRDIHEKRAVRKQKMEDIKGAMAMNRRLLSRISEMETVLEKESPSDPYVLLGSFLEAKKSEDMDSAIPGGMSYHHMLMSLLKVIKDAEDTTEEKSMDDSDKCLRRLKSHKERLLKLLEDAQKEYDTLEAESKNYITSEDLHLGFDSTYVQKKEPEKPKKTKTKKETIQVIESLNNPTPPTDFPGAKEQASTGNAPKNPVNENESEDEEGLSLSEDGKKFANIDFGDYSSSEEFLKEHLNILADEEESDAILLDAFNAELEGKPSLAKQYVHQALLISYCRQLGPNGLSIFFQKIKDPNHQSQRLFLEDVHNTYVRIHERSAAISKEQAESGEGVEQIQLCAVDPNTKLSITIPEAGSTDPETQKARAAFESFPPNLQKALMTNDLDKINVVLGKMAVENAEEVVEKLSSTGMLSIEEGIIDTTKGETIPQLS [E287D] | decreasing interaction
